Test [1] deals with cyno BCMA HEK293. Nature of the test: FMAT binding assay, cyno BCMA expressing HEK293 cells. The conditions noted are these: range of antibody concentrations. On the procedure:
Cryopreserved transfected human, cyno BCMA and mock transfected HEK293 cells were recovered from LN2 storage. Assay wells were prepared with human chimeric CA8 antibody, at a range of different concentrations, mixed with human BCMA HEK293, cyno BCMA HEK293 and mock transfected cells respectively. Anti-human IgG FMAT Blue secondary conjugate was added for detection of human chimeric CA8. The assay plates were left for a minimum of 90 minutes before the result was read on the ABI8200 (FMAT) plate reader.

The target in test [2] is T1, Human BCMA-Fc (Homo sapiens, UniProt Q02223).
T1 construct: CD33 signal peptide (N); TEV site (internal)
The test can be described thus: ELISA binding to recombinant human BCMA-Fc. The following applies: 5 ug/ml to 0.1 ug/ml antibody. On the procedure:
Chimeric CA8 antibodies were tested for binding to human BCMA and cyno BCMA expressed as Fc fusions. Human BCMA-Fc and cyno BCMA-Fc were coated to ELISA plates and the plates were blocked using BSA to reduce non specific binding. CA8 chimeric antibodies were added in a concentration range from 5 ug/ml to 0.1 ug/ml to the human and cyno BCMA coated ELISA plates. Any bound human chimeric CA8 antibody was detected using anti-human IgG HRP conjugated secondary antibody as appropriate. HRP substrate (TMB) was added to develop the ELISA.
(In an ELISA, binding on a coated surface is turned into a signal by an enzyme label.)

The subject of test [3] is TACI-Fc. The test can be described thus: Biacore cross reactivity experiment, TACI-Fc. It counts as binding. The following applies: antibody captured on protein A. How it is done: CA8 chimera antibody was injected and captured on protein A. (A protein A derivitised sensorchip was used). Residual protein A binding was blocked with an injection of a high concentration of human IgG solution. BCMA-Fc, TACI-Fc or BAFF-R-Fc solutions were then tested for binding to the antibody. The 3 proteins were injected in sequence and binding events were measured. The surface was regenerated between injection of each protein.
Sensorgrams were analysed in the Biaevaluation program. Double reference subtraction was done to remove instrument noise and any non-specific binding from the sensorgram curves.
For orientation: SPR reads the build-up and loss of mass on a sensor chip optically.

Test [4] addresses T2, Human in house BCMA (Homo sapiens, UniProt Q02223).
T2 construct: CD33 signal peptide (N); TEV site (internal); Fc (C); made in house
The test can be described thus: ProteOn analysis of CA8 chimeric and humanised constructs, human in house BCMA. It counts as binding. The following applies: ProteOn, 25° C.; for ka: in M-1s-1 (unit assumed); for kd: in s-1 (unit assumed). The method, boiled down: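 SPR at 25 °C in HBS-EP: CA8 antibodies captured on Protein A-coated chip, recombinant BCMA injected at 256, 64, 16, 4, 1 nM with buffer double-referencing; NaOH regeneration. Kinetics from 1:1 model fit; run 2 also used commercial human BCMA.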

Test [5] concerns Cyno in house BCMA. Nature of the test: ProteOn analysis of CA8 chimeric and humanised constructs, cyno in house BCMA. The conditions noted are these: 25° C.; for ka: in M-1s-1 (unit assumed); for kd: in s-1 (unit assumed). It counts as binding.
For test [6], the target named is T3, Human commercial BCMA (Homo sapiens, UniProt Q02223).
T3 construct: purchased US Biological B0410
T3 sequence (Q02223 1-184): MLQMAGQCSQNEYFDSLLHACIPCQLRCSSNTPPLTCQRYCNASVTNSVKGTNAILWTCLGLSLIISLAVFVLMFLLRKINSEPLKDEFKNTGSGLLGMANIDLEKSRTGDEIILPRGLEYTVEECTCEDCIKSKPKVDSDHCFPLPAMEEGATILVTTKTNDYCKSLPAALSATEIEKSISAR
The test can be described thus: BIAcore analysis J7 to J9 series, human commercial BCMA. The class given is binding. The conditions noted are these: 37° C. How it is done:
Protein A was immobilised on a CMS chip (GE Healthcare, Cat No: BR-1005-30) by primary amine coupling and this surface was then used to capture the antibody molecules. Recombinant human BCMA (US Biological, B0410) was used as analyte at 256 nM, 64 nM, 16 nM, 4 nM and 1 nM. Regeneration of the capture surface was carried out using 50 mM NaOH. All binding curves were double referenced with a buffer injection (i.e. 0 nM) and the data was fitted to the using the 1:1 model inherent to T100 evaluation software. The run was carried out at 37° C., using HBS-EP as the running buffer.

In test [7] the test system is Cyno in house BCMA. Nature of the test: BIAcore analysis J7 to J9 series, cyno in house BCMA. The conditions noted are these: 37° C. The class given is binding.
The target in test [8] is T3, Human commercial BCMA. The test can be described thus: BIAcore analysis of J6M0 and J9M0, human commercial BCMA. The class given is binding. How it is done: Protein A was immobilised on a CMS chip (GE Healthcare, Cat No: BR-1005-30) by primary amine coupling and this surface was then used to capture the antibody molecules. Recombinant human BCMA (US Biological, B0410) was used as analyte at 256 nM, 64 nM, 16 nM, 4 nM and 1 nM. Regeneration of the capture surface was carried out using 50 mM NaOH. All binding curves were double referenced with a buffer injection (i.e. 0 nM) the data was fitted to the using the 1:1 model inherent to T100 evaluation software. The run was carried out at 25° C. and 37° C. for experiment 1 and only 37° C. for experiment 2 using HBS-EP as the running buffer.

Test [9] concerns ARH77 BCMA transfected target cells (10B5). The test can be described thus: ADCC of chimeric and defucosylated chimeric CA8 with NK cells. It counts as cell-based. The following applies: human NK cells, E:T ratio 5:1, 2 hours. On the procedure: Human natural killer (NK) cells were incubated with europium labelled ARH77 BCMA transfected target cells (10B5) in the presence of varying concentrations of antibody at an E:T ratio of 5:1 for 2 hours. Europium release from the target cells was measured and specific lysis calculated.

T2 sequence (Q02223 with tags, fused parts or gaps limits assumed): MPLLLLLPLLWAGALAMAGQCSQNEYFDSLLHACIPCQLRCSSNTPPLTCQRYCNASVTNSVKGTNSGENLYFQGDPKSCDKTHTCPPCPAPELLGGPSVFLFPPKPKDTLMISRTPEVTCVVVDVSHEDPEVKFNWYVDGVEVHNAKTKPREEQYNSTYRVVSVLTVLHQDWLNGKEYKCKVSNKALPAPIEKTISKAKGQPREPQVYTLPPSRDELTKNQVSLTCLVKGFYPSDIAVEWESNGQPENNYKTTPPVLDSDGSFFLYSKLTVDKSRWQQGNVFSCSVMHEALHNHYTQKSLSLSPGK
Sequence of Cyno in house BCMA (as listed by the source): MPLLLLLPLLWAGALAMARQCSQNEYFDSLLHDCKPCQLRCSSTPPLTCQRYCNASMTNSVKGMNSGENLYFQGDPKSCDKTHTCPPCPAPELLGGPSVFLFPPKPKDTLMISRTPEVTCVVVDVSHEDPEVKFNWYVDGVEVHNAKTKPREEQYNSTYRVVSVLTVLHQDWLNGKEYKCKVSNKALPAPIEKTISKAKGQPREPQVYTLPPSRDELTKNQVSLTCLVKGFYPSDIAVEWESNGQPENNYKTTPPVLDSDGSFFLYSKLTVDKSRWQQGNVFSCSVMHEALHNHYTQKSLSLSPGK
T1 sequence (Q02223 with tags, fused parts or gaps): as the sequence (Q02223 with tags, fused parts or gaps limits assumed) above
Sequence of cyno BCMA HEK293 (as listed by the source): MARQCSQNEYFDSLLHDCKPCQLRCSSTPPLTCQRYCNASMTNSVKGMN

B1: CA8 Chimera: chimeric anti-BCMA antibody: murine CA8 VH (SEQ ID NO:7) and VL (SEQ ID NO:9) on human γ1 and kappa constant regions (antibody, V domains shown)
VH: EVQLQQSGAVLARPGASVKMSCKGSGYTFTNYWMHWVKQRPGQGLEWIGATYRGHSDTYYNQKFKGKAKLTAVTSTSTAYMELSSLTNEDSAVYYCTRGAIYNGYDVLDNWGQGTLVTVSS
VL: DIQLTQTTSSLSASLGDRVTISCSASQDISNYLNWYQQKPDGTVELVIYYTSNLHSGVPSRFSGSGSGTDYSLTIGYLEPEDVATYYCQQYRKLPWTFGGGSKLEIKR
modifications: human IgG1 and kappa constant regions; mus musculus
As for B1, the “binding to cyno BCMA expressed on HEK293 cells” value in test [1] was “binds well”. Moreover, the “binding to recombinant human BCMA (ELISA)” value in test [2] (listed as Chimeric CA8) was “binds to recombinant human and cyno BCMA”; in [2] (listed as human chimeric CA8 antibodies), “bind to human and cyno BCMA proteins equally”. The entries for the “binding to TACI-Fc” value in test [3] (listed as CA8) and in test [3] (listed as CA8 chimera antibody) were “not to TACI” and “does not bind”, respectively. For the same molecule, the ka in test [4] (Run 1, Human in house BCMA) was 2.41E+05; in test [4] (Run 2, Human in house BCMA), 2.51E+05; in test [5] (Run 1, Cyno in house BCMA), 3.82E+05; in test [5] (Run 2, Cyno in house BCMA), 5.89E+04; in test [6] (in M-1s-1 (unit assumed)) it was 3.27E+07; in test [7] (in M-1s-1 (unit assumed)), 1.15E+06. The ka in test [8] (25° C., Experiment 1, in M-1s-1 (unit assumed)) came out at 1.88E+06; in [8] (37° C., Experiment 1, in M-1s-1 (unit assumed)) it was 1.72E+07; in test [8] (37° C., Experiment 2, in M-1s-1 (unit assumed)), 1.88E+07. The kd in test [4] (Run 1, Human in house BCMA) is 1.25E−04; in test [4] (Run 2, Human in house BCMA) it was 1.03E−04; in [5] (Run 1, Cyno in house BCMA), 1.74E−04; in test [5] (Run 2, Cyno in house BCMA) it was 1.21E−04; in [6] (in s-1 (unit assumed)), 1.18E−03; in test [7] (in s-1 (unit assumed)), 3.49E−04. In addition, the kd is 2.63E−04 in test [8] (25° C., Experiment 1, in s-1 (unit assumed)); 8.72E−04 in test [8] (37° C., Experiment 1, in s-1 (unit assumed)); 1.04E−03 in [8] (37° C., Experiment 2, in s-1 (unit assumed)). For the same molecule, in test [9], the “ADCC activity (specific lysis, europium release)” value is “killed BCMA expressing target cells via ADCC”.

For the origin of these results see patent US11419945B2, “Antigen binding proteins” (Glaxo Group Limited, priority 2011, dated 2022).
